Reference: patent US20100120700A1, “METHODS AND COMPOSITIONS FOR TREATING CERVICAL CANCER” (priority 2000, published 2010)
“Also recorded” adds a separate entry of the source. Where two headings read alike, the source gives them in different places.

B1: TIP-TIP-IgG fusion protein: two copies of the TIP-1 PDZ domain fused to the hIgG constant region (protein)
chain: QRVEIHKLRQGENLILGFSIGGGIDQDPSQNPFSEDKTDKGIYVTRVSEGGPAEIAGLQIGDKIMQVNGWDMTMVTHDQARKRLTKRSEEVVRLLVTRQSLQKQRVEIHKLRQGENLILGFSIGGGIDQDPSQNPFSEDKTDKGIYVTRVSEGGPAEIAGLQIGDKIMQVNGWDMTMVTHDQARKRLTKRSEEVVRLLVTRQSLQK
modifications: left off: a dimerising Fc or GST
notes: two copies of the TIP-1 PDZ domain fused to the hIgG constant region

Experiments:
[1] = test system: human PDZ domains; assay: G assay, E6 PL peptides against PDZ domain panel; settings: value names the PDZ domain(s) that saturated binding with the E6 peptide; signal classes (A450 nm 3-4 or 4)
Experimental: (1) A PDZ-domain polypeptide is bound to a surface, e.g. a protein binding surface. In a preferred embodiment, a GST/PDZ fusion protein containing one or more PDZ domains is bound to a polystyrene 96-well plate. […] In one embodiment, the GST/PDZ fusion protein is bound via an anti-GST antibody that is coated onto the 96-well plate. Adequate binding to the plate can be achieved when: • a. 100 uL per well of 5 ug/mL goat anti-GST polyclonal antibody (Pierce) in PBS is added to a polystyrene 96-well plate (e.g., Num Polysorb) at 4° C. for 12 hours. • b. The plate is blocked by addition of 200 uL per well of PBS/BSA for 2 hours at 4° C. • c. The plate is washed 3 times with PBS. • d. […]
(3) The binding of the biotinylated peptide to the GST/PDZ fusion protein surface can be detected using a variety of methods and detectors known to one of skill in the art. […] The reaction of the HRP and its substrate is terminated by addition of 100 uL per well of 1M sulfuric acid, and the absorbance of each well of the plate is read at 450 nm.
(4) Specific binding of a PL peptide and a PDZ domain polypeptide is determined by comparing the signal from the well(s) in which the PL peptide and PDZ domain polypeptide are combined, with the background signal(s). […]

[2] = target: T1, GST-HPV11E6 (Human papillomavirus 11, UniProt P04019); assay: Modified ELISA, TIP-TIP-IgG binding to full length E6; design: species or system HPV11; settings: plate coated with 5 ug/ml GST-E6; FIG. 2
T1 construct: made in house; host or cells: E. coli
Experimental: (§1) Protocol • 1) Coat plate with 5 ug/ml GST-E6 fusion protein, O/N @4° C. • 2) Dump proteins out and tap dry • 3) Blocking—Add 200 ul per well 2% BSA/PBS, 2 hrs at 4° C. • 4) Prepare PDZ proteins (50:50 mixture of supematant from TIP-TIP-IgG transfection and 2% BSA/PBS) • 5) 3× wash with cold PBS • 6) Add PDZ protein prepared in step 7 or anti-E6 Ab at 1 ug/ml in 2% BSA/PBS (or anti-GST Ab as control). • 7) 3× wash with cold PBS • 8) Add appropriate concentration of enzyme-conjugated detection Ab (anti-hIgG-HRP, anti-goat-HRP, or anti-mouse-HRP) 100 ul per well on ice, 20 minutes at 4° C. • 9) Turn on plate reader and prepare files • 10) 5× wash with Tween wash buffer, avoiding bubbles • 11) Using gloves, add TMB substrate at 100 ul per well • incubate in dark at room temp • check plate periodically (5, 10, & 20 minutes) • take early readings, if necessary, at 650 nm (blue) • at 30 minutes, stop reaction with 100 ul of 1M H2SO4 • take final reading at 450 nm (yellow)

[3] = target: GST-HPV18E6 fusion protein (Human papillomavirus type 18, UniProt P06463); settings: plate coated with 5 ug/ml GST-E6, unpurified TIP-TIP-IgG supernatant, FIG. 2
GST-HPV18E6 fusion protein, sequence (P06463 whole entry, the tested form may be a part): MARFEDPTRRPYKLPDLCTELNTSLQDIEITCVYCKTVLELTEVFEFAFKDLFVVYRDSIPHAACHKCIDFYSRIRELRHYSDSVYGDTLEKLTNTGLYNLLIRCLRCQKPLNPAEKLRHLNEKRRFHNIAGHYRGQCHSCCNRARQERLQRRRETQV
Experimental: as §1

T1 sequence (P04019 whole entry): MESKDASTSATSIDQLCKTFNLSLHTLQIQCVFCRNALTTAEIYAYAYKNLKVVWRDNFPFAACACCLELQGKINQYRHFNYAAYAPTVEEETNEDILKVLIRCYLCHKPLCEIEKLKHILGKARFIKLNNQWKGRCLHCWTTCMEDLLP

Row | Molecule | PDZ binding partner (signal 4 and 5 of 0-5) [1] | binding to full length non-oncogenic E6 (HPV11) [2] | binding to full length oncogenic E6 (HPV18) [3] | binding to full length oncogenic E6 (HPV18) ([3]; listed as TIP-1)
1 | HPV 18: biotinylated 18-20 aa E6 C-terminal peptide of HPV 18, terminal residues E T Q V; RLQRRRETQV (SEQ ID NO: 14) | TIP1 and Magi 1 (PDZ #2) |  |  | 
2 | B1 |  | did not show any reactivity; also recorded: without binding to non-oncogenic variants | able to recognize GST-HPV18E6 fusion protein at levels comparable to an antibody generated against HPV18-E6 | could specifically recognize full length E6 protein from an oncogenic strain (HPV18)
